# Laboratory results: US20070042345
# Tested on: F2C intracellular calcium ion indicator protein (GAP43 palmitoylation signal - ECFP - two alpha-spectrin calpain sensitive sequences - EYFP)
substance,measurement,value
"purified µ-calpain (Calpain I, Calbiochem, California, U.S.A.)",Western blot for fragmented F2C after incubation with purified µ-calpain in Ca-EGTA buffer,fragmented F2C signal was not detected (data not shown)
